Results on one protein are retold here after publication PMC10705692, “Structural dynamics of GluK2 kainate receptors in apo and partial agonist bound states” (Research Square, 2023).

The series concerns the molecule itself. The series is described as follows: cryo-EM structure; purified GluK2 EM in DDM micelles without ligand (apo; residual glutamate washed out on Strep-Tactin), 50 mM Tris-Cl pH 8.0, 150 mM NaCl, 1 mM DDM, ~4 mg/ml; single-particle cryo-EM, C2 imposed, 3.0 Å.

B1: full-length rat GluK2 KAR, cryo-EM construct (GluK2 EM) (receptor, UniProt P42260 32-908, looked up)
chain: TTHVLRFGGIFEYVESGPMGAEELAFRFAVNTINRNRTLLPNTTLTYDTQKINLYDSFEASKKACDQLSLGVAAIFGPSHSSSANAVQSICNALGVPHIQTRWKHQVSDNKDSFYVSLYPDFSSLSRAILDLVQFFKWKTVTVVYDDSTGLIRLQELIKAPSRYNLRLKIRQLPADTKDAKPLLKEMKRGKEFHVIFDCSHEMAAGILKQALAMGMMTEYYHYIFTTLDLFALDVEPYRYSGVNMTGFRILNTENTQVSSIIEKWSMERLQAPPKPDSGLLDGFMTTDAALMYDAVHVVSVAVQQFPQMTVSSLQCNRHKPWRFGTRFMSLIKEAHWEGLTGRITFNKTNGLRTDFDLDVISLKEEGLEKIGTWDPASGLNMTESQKGKPANITDSLSNRSLIVTTILEEPYVLFKKSDKPLYGNDRFEGYCIDLLRELSTILGFTYEIRLVEDGKYGAQDDVNGQWNGMVRELIDHKADLAVAPLAITYVREKVIDFSKPFMTLGISILYRKPNGTNPGVFSFLNPLSPDIWMYVLLAYLGVSVVLFVIARFSPYEWYNPHPSNPDSDVVENNFTLLNSFWFGVGALMQQGSELMPKALSTRIVGGIWWFFTLIIISSYTANLAAFLTVERMESPIDSADDLAKQTKIEYGAVEDGATMTFFKKSKISTYDKMWAFMSSRRQSVLVKSNEEGIQRVLTSDYAFLMESTTIEFVTQRNCNLTQIGGLIDSKGYGVGTPMGSPYRDKITIAILQLQEEGKLHMMKEKWWRGNGCPEEESKEASALGVQNIGGIFIVLAAGLVLSVFVAVGEFLYKSKKNAQLEKRSFCSAMVEELRMSLKCQRRLKHKPQAPVIVKTEEVINMHTFNDRRLPGKETMA
modifications: N-glycosylation at Asn 67, 73, 275, 378, 412, 423, 430, 546 and 751 (LC-MS/MS of the purified protein)
notes: Glutamate receptor ionotropic, kainate 2 (GluK2), rat, full length; RNA-edited at position 567 (I to V), with C576V and C595S; followed by a human rhinovirus 3C protease site and a Twin-Strep tag at the C-terminus; Homotetramer (subunits A-D); No cleavage of the 3C site is described; also called homomeric rat GluK2; GRIK2_RAT; source: Sf9 insect cells (baculovirus, EarlyBac), solubilised in DDM, …
In the case of B1, the “stoichiometry N” value amounted to 4.
